Experimental data: article PMC7738170

What was measured:
[1] = target: T1, 6xHis-DnaA (Mtb) (Mycobacterium tuberculosis) (UniProt P9WNW3); assay: EMSA
T1 sequence: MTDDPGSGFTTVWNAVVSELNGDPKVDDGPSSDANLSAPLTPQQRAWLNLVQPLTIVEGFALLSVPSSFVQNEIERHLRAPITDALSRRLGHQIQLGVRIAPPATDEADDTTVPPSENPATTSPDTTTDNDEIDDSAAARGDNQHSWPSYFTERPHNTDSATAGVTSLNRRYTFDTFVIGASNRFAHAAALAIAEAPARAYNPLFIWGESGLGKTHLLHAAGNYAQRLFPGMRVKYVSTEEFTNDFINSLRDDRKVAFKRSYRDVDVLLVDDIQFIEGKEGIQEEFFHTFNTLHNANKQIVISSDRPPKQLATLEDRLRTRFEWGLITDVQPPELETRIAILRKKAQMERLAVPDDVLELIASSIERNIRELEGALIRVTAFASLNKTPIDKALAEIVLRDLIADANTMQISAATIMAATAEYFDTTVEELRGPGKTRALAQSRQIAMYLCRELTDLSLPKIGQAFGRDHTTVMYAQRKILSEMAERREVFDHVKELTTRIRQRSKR

[2] = test system: 6xHis-DnaA (Mtb) (Mycobacterium tuberculosis); assay: EMSA

| Substance | binding [1] | Kd [2] |
| --- | --- | --- |
| CCCTACACGACGCTCTTCCGACCCTCTCACCACTGCAGACAAAGTTATCCACAGACGCTATCAACAGTGGGGATGAATCACATGCGTGTGATTGAGTGACCAAAAGGTTGCTGGCACAGTAACGACCCGACCAGAATATGAATTCATTCTATCGGCGGCG (double strand) [Rv0010c-Rv0011c intergenic fragment] | binds | – |
| oriC fragment | – | 70 nM |
